Target: LvPrx4 (endogenous, shrimp hemocytes) (Penaeus vannamei (endogenous in hemocytes))
Test: Western blot after SDS-PAGE

## LvPrx4 (endogenous, shrimp hemocytes) (natural protein)
  stoichiometry N: 2

From publication PMC9813724
